Source: patent publication US20250295803A1, “5T4 ANTIBODY-DRUG CONJUGATES AND USES THEREOF” (EXELIXIS, INC., priority 2022, published 2025)
Residue numbers refer to the chain shown, from its start. Each block holds one molecule with its values, some of them ahead of it.

Experiments:
HEK-5T4 cells = test: Internalization assay (Incucyte FabFluor-pH), HEK-5T4 cells; assay type: cell-based
Protocol: Adherent cells were harvested at 70-90% confluence and were plated overnight at 37° C. in a 96-well black, clear/flat bottom half-area plate (Corning 3882) at 20,000 cells/well in 50 μL culture media. For suspension cell lines, 96-well plates were coated with poly-L-ornithine solution (Millipore-Sigma) for 1 hour at 37° C. and cells were seeded at 40,000 cells per/well density in 50 μL culture media, about 1 to 2 hours prior to the assay. Antibodies were diluted in cell culture media, mixed with 3× molar concentration of Incucyte human FabFluor-pH red antibody labelling reagent and incubated for 15 minutes at room temperature. 2× final concentration of all dilutions of antibody/FabFluor mix was prepared. 50 μL of 2× antibody/Fab-Fluor mix was then directly added to every well with pre-seeded cells in duplicates and plate was quickly transferred to Incucyte. Plates were then scanned every 30 minutes for up to 24 hours. Care was taken to begin the first scanning (0 hour) within 2 to 3 minutes of adding antibody/FabFluor mix to the cells. Plates were analyzed by reading the red signal generated overtime, normalized to the % confluence of cells in that well. Few antibodies were tested at different concentrations on target cell lines, and the best concentration was selected based on a good signal:noise ratio.

[1] = Protein thermal shift (melting temperature); assay type: physicochemical
Protocol: Samples for protein thermal shift experiments (melting temperature) were prepared using the APPLIED BIOSYSTEMS™ PROTEIN THERMAL SHIFT™ Dye Kit (ThermoFisher Scientific Cat. No. 4461146). Data were collected using a QUANTSTUDIO™ 3 instrument (ThermoFisher Scientific Cat. No. A28567) with PROTEIN THERMAL SHIFT™ Software v1.4 (ThermoFisher Scientific Cat. No. 466038). Briefly, PROTEIN THERMAL SHIFT™ dye (1000×) was diluted in water to 8× in deionized water. Samples were prepared on ice by combining 5 μL of PROTEIN THERMAL SHIFT™ Buffer, 12.5 μL of protein solution, and 2.5 μL of the diluted PROTEIN THERMAL SHIFT™ Dye (8×) for a total reaction solution volume of 20 μL. The reaction solution was mixed 10 times with a pipette. Tubes were then spun down at 1000 rpm for 1 minute and then incubated on ice until analysis. Samples were loaded onto the instrument plate, which were then loaded into a QUANTSTUDIO™ 3 Real-Time PCR System instrument. Data was collected using the standard Melt Curve experiment with the following conditions: Step 1 temperature: 25° C. for 2 minutes; Step 2 temperature: 99° C. for 2 minutes with continuous fast ramp mode (Step 1: 1.6° C./sec; Step 2: 0.05° C./sec). Raw melting temperature data were deconvoluted within the QUANTSTUDIO™ 3 analysis software.

[2] = molecular target: T1, HEK293 and CHO cells transfected to express cyno 5T4 (Macaca fascicularis, UniProt Q4R8Y9); test: Cell binding to transfected HEK293 and CHO cells, cyno 5T4; assay type: cell-based
T1 construct: expressed in transfected cells; host or cells: HEK293 and CHO
T1 sequence (Q4R8Y9 35-420): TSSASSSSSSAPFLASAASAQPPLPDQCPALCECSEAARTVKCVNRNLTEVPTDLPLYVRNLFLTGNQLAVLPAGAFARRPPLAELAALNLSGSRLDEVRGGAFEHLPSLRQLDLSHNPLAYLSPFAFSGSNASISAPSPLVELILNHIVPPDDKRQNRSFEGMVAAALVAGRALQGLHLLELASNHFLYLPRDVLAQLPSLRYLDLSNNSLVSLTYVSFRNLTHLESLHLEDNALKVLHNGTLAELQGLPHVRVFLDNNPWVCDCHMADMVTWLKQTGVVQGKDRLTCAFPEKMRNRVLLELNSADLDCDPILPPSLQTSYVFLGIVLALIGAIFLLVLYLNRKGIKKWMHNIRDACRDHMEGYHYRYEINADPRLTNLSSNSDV
Protocol: Unconjugated antibodies were tested for their ability to bind to HEK293 and CHO cells transfected to express human, cyno, rat, or mouse 5T4.

[3] = molecular target: T2, unconjugated human TPBG/5T4 protein with a c-terminal polyhistidine and Avi tag (AcroBiosystems Cat. No. … (human, UniProt Q13641 32-355)); test: ELISA on coated human 5T4 His-Avi (Acro TPG-H52E5); antibody condition: pH 5.5 Day 1
T2 construct: Bought protein; also called Acro TPGH52E5; Acro Catalog No. TPGH52E; not shown: C-terminal polyhistidine and Avi tag
T2 sequence: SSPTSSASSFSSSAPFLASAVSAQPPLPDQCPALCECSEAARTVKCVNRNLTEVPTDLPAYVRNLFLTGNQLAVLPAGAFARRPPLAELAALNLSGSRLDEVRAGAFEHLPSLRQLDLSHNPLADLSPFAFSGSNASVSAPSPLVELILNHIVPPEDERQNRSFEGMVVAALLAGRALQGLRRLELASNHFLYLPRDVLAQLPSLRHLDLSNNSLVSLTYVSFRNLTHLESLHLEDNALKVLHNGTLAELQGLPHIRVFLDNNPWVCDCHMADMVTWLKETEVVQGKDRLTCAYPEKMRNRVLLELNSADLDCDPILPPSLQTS
Protocol: A. Normal Binding Unconjugated antibodies were tested for their ability to bind to human 5T4 (hu5T4) using ELISA. On Day 1, unconjugated human TPBG/5T4 protein with a c-terminal polyhistidine and Avi (AVITAG™) tag (AcroBiosystems (Newark, DE, USA), Cat. No. TPG-H52E5) was diluted 2 μg/mL in PBS, mixed thoroughly, plated 100 μL per well in a 96-well plate (Nunc MAXISORP®) and incubated overnight at 4° C.

[4] = molecular target: T3, human 5T4 produced internally (Lot 20-019-62) (human, UniProt Q13641 32-355); test: Octet, antibody on AHC sensors, human 5T4 in solution (monovalent); Internal Lot 20-019-62
T3 construct: 'also produced separately'; also called Internal (Lot 20-019-62)
T3 sequence: T2 sequence
Protocol: Monovalent binding assays were employed to determine the relative affinity of each 5T4 binder obtained by the phage display in Example 1 to human 5T4. Human 5T4 was purchased from Acro Biosystems (Acro Catalog No. TPGH52E) and also produced separately. The monovalent interaction of binders to human 5T4 was monitored using an Octet (Pall ForteBio) instrument. For these assays, 36 nM antibody was immobilized on anti-human Fc (AHC) sensors in 1× kinetic buffer (ForteBio). The sensors were then dipped in wells containing a 3× serial dilution of human 5T4 ranging from 1 μM to 1.37 nM. The association was allowed to reach equilibrium. Sensors were then moved to wells containing only 1× kinetic buffer and allowed to dissociate to equilibrium. Association and dissociation rates were measured and from these, monovalent KDS were calculated using the onboard analysis software (ForteBio).

B1: mAbA4: 5T4 antibody comprising VH of SEQ ID NO:25 and VL of SEQ ID NO:26 (antibody, V domains shown)
VH: EVQLVESGGGLVQPGGSLRLSCAASGFTFSRYYIHWVRQAPGKGLEWVAFISPGGSYTYYADSVKGRFTISADTSKNTAYLQMNSLRAEDTAVYYCAREYYSMGVLDYWGQGTLVTVSS
VL: DIQMTQSPSSLSASVGDRVTITCRASQSVSSAVAWYQQKPGKAPKLLIYSASSLYSGVPSRFSGSRSGTDFTLTISSLQPEDFATYYCQQAYESPYTFGQGTKVEIK
modifications: Antibody mAbA4 VH Sequence; Antibody mAbA4 VL Sequence
internalization in HEK-5T4 cells (HEK-5T4 cells): strong internalization | CH2 Tm [1]: 69.18 | Fab Tm [1]: 89.94 | reactivity to cells transfected to express cyno 5T4 [2]: reactive

B2: mAbA15: 5T4 antibody comprising VH of SEQ ID NO:44 and VL of SEQ ID NO:45 (antibody, V domains shown)
VH: EVQLVESGGGLVQPGGSLRLSCAASGFTFSSYYIHWVRQAPGKGLEWVAYITSTGSYTEYADSVKGRFTISADTSKNTAYLQMNSLRAEDTAVYYCARYDRSTRYSGLDYWGQGTLVTVSS
VL: B1 VL with E93A, S94T, Y96V
modifications: Antibody mAbA15 VH Sequence; Antibody mAbA15 VL Sequence
internalization in HEK-5T4 cells (HEK-5T4 cells): strong internalization | CH2 Tm [1]: 70.07 | Fab Tm [1]: 86.38 | reactivity to cells transfected to express cyno 5T4 [2]: reactive

B6: mAbA17: 5T4 antibody comprising VH of SEQ ID NO:62 and VL of SEQ ID NO:63 (antibody, V domains shown)
VH: EVQLVESGGGLVQPGGSLRLSCAASGFTFSRYWIHWVRQAPGKGLEWVAAIFPYSGSTLYADSVKGRFTISADTSKNTAYLQMNSLRAEDTAVYYCARSPSRSILPSGLDYWGQGTLVTVSS
VL: B1 VL with A91G, Y92D, E93G
modifications: Antibody mAbA17 VH Sequence; Antibody mAbA17 VL Sequence
CH2 Tm [1]: 70.06 | Fab Tm [1]: 81.92 | reactivity to cells transfected to express cyno 5T4 [2]: reactive

Other lines, results leading:

EC50 [3]: 0.159 nM | Kd [4]: 9.34 nM
B3: mAbA17 (antibody, V domains shown)
VH: B6 VH
VL: DIQMTQSPSSLSASVGDRVTITCRASQSVSSAVAWYQQKPGKAPKLLIYSASSLYSGVPSRFSGSRSGTDFTLTISSLQPEDFATYYCQQGDGSPYTFGQGTKVEIKR
notes: also called Antibody mAbA17

EC50 [3]: 0.134 nM | Kd [4]: 10.4 nM
B4: mAbA15 (antibody, V domains shown)
VH: B2 VH
VL: B3 VL with G91A, D92Y, G93A, S94T, Y96V
notes: also called Antibody mAbA15

EC50 [3]: 0.132 nM | Kd [4]: 83 nM
B5: mAbA4 (antibody, V domains shown)
VH: B1 VH
VL: B3 VL with G91A, D92Y, G93E
notes: also called Antibody mAbA4
